Source: patent US20160369258A1, “RESTRICTING NUCLEAR PROTEIN TO SPECIFIC PHASES OF THE CELL CYCLE” (UNIVERSITY OF WASHINGTON, priority 2014, published 2016)

Key:
Ramos B cells [1] = test: sIgM loss frequency assay (surrogate for SHM); type: cell-based, human; conditions: day 7 after sorting mCherry+ cells
Source text: sIgM loss frequency provides a convenient surrogate assay for SHM (45, 46). To determine fractions of sIgM− cells, 2-5×10^5 cells were fixed in 3.7% formaldehyde and stained with anti-human IgM (1:500, Souther Biotech), and sIgM− variants quantified by FACS as described (47). To establish that selective pressure was not sufficient to affect the frequency of sIgM loss, we assayed loss of mCherry signal posttransduction (FIG. 18).

Ramos B cells [2] = test: Subcellular distribution of AID fusion proteins determined by HCS microscopy; type: cell-based, human; conditions: for Nuclear mCherry, mean: corrected for cytoplasmic baseline
Method: Cells were fixed in 3.7% formaldehyde at a density of 2×10^6 cells/ml and stained with whole cell stain (HCS CellMask, Invitrogen) and DAPI (0.2 μg/ml). Fixed cells were then washed, resuspended in PBS and spun down in a 96-well μclear microplate (Greiner Bio One) for imaging. Cells were imaged by Thermo Scientific ArrayScan VTI HCS reader, analyzing 3000-6000 cells in each treatment group. Cells with very low or very high mCherry signals were eliminated, gating based on the mock transduction control (low) and eliminating cells with signals more than 5 SD from the mean (high). The HCS Colocalization BioApplication protocol was used to determine nuclear and whole cell boundaries in individual cells as defined by DAPI and HCS CellMask, respectively, thereby defining the cytoplasmic region as the region between nuclear and whole cell boundaries. The average signal in the nuclear and cytoplasmic compartments was determined in individual cells by measuring the total intensity of mCherry signal divided by area within each compartment. The ratio of nuclear to cytoplasmic signal (N/C) was calculated as the ratio of the average signals of nuclear and cytoplasmic mCherry.
G1, S, and G2/M phase cells were distinguished by ranking DNA content as determined by total DAPI signal, and specific fractions of the population assigned to G1, S and G2/M phases (FIG. 16A). HCS results were expressed in terms of average signal, to ensure independence of cell size, which increases during cell cycle (FIG. 16).
Cells were fixed and stained with whole cell stain (HCS CellMask, Invitrogen) and DAPI, washed, and imaged by Thermo Scientific ArrayScan VTI HCS reader, analyzing 3000-6000 cells in each treatment group. To enable accurate comparisons among different transductant populations, nuclear signal for each cell was corrected by subtraction of the corresponding baseline value, as established by linear regression analysis. HCS results were expressed in terms of average signal, to ensure independence of cell size.

B1: AID^F193A-mCherry: AID-mCherry carrying the AID F193A mutation, which prevents nuclear export (protein, UniProt Q9GZX7 1-198, looked up, variant F193A)
Single-stranded DNA cytosine …: MDSLLMNRRKFLYQFKNVRWAKGRRETYLCYVVKRRDSATSFSLDFGYLRNKNGCHVELLFLRYISDWDLDPGRCYRVTWFTSWSPCYDCARHVADFLRGNPNLSLRIFTARLYFCEDRKAEPEGLRRLHRAGVQIAIMTFKDYFYCWNTFVENHERTFKAWEGLHENSVRLSRQLRRILLPLYEVDDLRDAARTLGL
modifications: C-terminal mCherry fusion
notes: AID-mCherry carrying the AID F193A mutation, which prevents nuclear export
sIgM loss rates (Ramos B cells [1]): greatly elevated
subcellular localization by HCS across cell cycle (Ramos B cells [2]; G1, S, G2/M phase cells): persistent nuclear localization
Cytoplasmic mCherry, mean (Ramos B cells [2]; G1 phase cells): 66.4
Total mCherry, mean (Ramos B cells [2]; G1 phase cells): 117.5
Nuclear mCherry, mean (Ramos B cells [2]; G1 phase cells): 75.4
Cytoplasmic mCherry, mean (Ramos B cells [2]; G2/M phase cells): 60.2
Total mCherry, mean (Ramos B cells [2]; G2/M phase cells): 109.7
Nuclear mCherry, mean (Ramos B cells [2]; G2/M phase cells): 63.6
Cytoplasmic mCherry, mean (Ramos B cells [2]; S phase cells): 58.6
Total mCherry, mean (Ramos B cells [2]; S phase cells): 103.2
Nuclear mCherry, mean (Ramos B cells [2]; S phase cells): 56.8
Cytoplasmic mCherry, mean (Ramos B cells [2]; whole transductant population): 62.9
Total mCherry, mean (Ramos B cells [2]; whole transductant population): 111.4
Nuclear mCherry, mean (Ramos B cells [2]; whole transductant population): 67.5
